Measured values reported in patent US20200317768A1 (published 2020).

Columns and labels:
Assay in all cases: SPR (BIACORE); KD of SG1 / KD of variant;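 also: relative to parent M103205H795-SG1 carrying the SG1 human heavy chain constant region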
[1] = biological target: T1, cynomolgus monkey FcγRIIa1 extracellular domain with C-terminal His-tag (cynomolgus monkey)
T1 construct: also called cyno FcgRIIa1; cynoFcγRIIa1
T1 chain: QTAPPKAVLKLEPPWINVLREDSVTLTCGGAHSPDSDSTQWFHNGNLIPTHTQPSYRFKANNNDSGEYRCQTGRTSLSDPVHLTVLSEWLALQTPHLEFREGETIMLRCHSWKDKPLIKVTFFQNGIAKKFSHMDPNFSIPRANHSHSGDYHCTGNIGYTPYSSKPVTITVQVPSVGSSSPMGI

[2] = biological target: T2, cynomolgus monkey FcγRIIa3 extracellular domain with C-terminal His-tag (cynomolgus monkey)
T2 construct: also called cyno FcgRIIa3; cynoFcγRIIa3
T2 chain: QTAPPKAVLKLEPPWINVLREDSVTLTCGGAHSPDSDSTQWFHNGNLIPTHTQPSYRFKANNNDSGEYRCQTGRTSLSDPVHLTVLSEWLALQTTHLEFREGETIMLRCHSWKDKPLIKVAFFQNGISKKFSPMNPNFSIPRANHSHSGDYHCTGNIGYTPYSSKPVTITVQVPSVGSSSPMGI

[3] = biological target: T3, cynomolgus monkey FcγRIIb extracellular domain with C-terminal His-tag (cynomolgus monkey)
T3 construct: also called cyno FcgRIIb; cynoFcγRIIb
T3 chain: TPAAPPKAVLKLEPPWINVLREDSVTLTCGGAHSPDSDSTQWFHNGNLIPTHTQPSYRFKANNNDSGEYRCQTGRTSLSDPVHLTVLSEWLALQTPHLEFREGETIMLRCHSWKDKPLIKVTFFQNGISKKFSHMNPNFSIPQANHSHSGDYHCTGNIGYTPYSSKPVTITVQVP

[4] = biological target: T4, cynomolgus monkey FcγRIIIaS extracellular domain with C-terminal His-tag (cynomolgus monkey, UniProt Q8SPW2 21-206 at identity 1.00))
T4 construct: also called cyno FcgRIIIaS; cynoFcγRIIIaS
T4 chain: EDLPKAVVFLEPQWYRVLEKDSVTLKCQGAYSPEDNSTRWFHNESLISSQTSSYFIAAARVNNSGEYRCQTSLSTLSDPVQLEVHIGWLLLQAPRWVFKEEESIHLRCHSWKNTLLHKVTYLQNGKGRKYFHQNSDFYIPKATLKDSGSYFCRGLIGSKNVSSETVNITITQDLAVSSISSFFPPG

[5] = biological target: T5, human FcγRIIaH extracellular domain with C-terminal His-tag (human, UniProt P12318 34-217)
T5 construct: also called human FcgRIIaH; FcγRIIa (type H)
T5 sequence: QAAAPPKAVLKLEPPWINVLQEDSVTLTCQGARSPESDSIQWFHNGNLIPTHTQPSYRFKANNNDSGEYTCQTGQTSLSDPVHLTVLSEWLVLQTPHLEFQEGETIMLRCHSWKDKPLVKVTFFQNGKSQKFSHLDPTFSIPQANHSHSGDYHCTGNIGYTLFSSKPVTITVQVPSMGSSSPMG

[6] = biological target: T6, human FcγRIIaR extracellular domain with C-terminal His-tag (human, UniProt P12318 34-217)
T6 construct: also called human FcgRIIaR; FcγRIIa (type R)
T6 chain: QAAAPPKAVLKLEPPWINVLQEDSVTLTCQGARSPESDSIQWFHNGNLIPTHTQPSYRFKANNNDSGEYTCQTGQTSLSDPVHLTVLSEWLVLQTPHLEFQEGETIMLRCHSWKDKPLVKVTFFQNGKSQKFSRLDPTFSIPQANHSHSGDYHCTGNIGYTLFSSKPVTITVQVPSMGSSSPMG

[7] = biological target: T7, human FcγRIIb extracellular domain with C-terminal His-tag (human, UniProt P31994 43-217)
T7 construct: also called human FcgRIIb
T7 sequence: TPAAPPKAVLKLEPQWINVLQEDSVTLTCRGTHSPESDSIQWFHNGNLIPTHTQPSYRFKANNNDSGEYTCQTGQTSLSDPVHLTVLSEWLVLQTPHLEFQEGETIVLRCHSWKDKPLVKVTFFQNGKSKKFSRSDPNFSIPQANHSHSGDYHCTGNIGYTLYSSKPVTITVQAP

[8] = biological target: T8, human FcγRIIIaV extracellular domain with C-terminal His-tag (human, UniProt P08637 17-208)
T8 construct: also called human FcgRIIIaV
T8 sequence (P08637 17-208 F176V): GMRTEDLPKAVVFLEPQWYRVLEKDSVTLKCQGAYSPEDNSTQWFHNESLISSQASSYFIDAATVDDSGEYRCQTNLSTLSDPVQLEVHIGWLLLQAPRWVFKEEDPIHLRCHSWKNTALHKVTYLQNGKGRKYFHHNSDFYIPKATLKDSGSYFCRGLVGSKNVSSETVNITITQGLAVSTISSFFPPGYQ

Binder	KD fold (SG1 = 1) [1] [fold]	KD fold (SG1 = 1) [2] [fold]	KD fold (SG1 = 1) [3] [fold]	KD fold (SG1 = 1) [4] [fold]	KD fold (SG1 = 1) [5] [fold]	KD fold (SG1 = 1) [6] [fold]	KD fold (SG1 = 1) [7] [fold]	KD fold (SG1 = 1) [8] [fold]
M103205H795-MY514/M103202L889-SK1 (antibody, human IgG1, kappa, Substitutions introduced into M103205H795-SG1, expressed with M103202L889-SK1 as light chain; EU numbering) heavy: QVTLKESGPVLVKPTETLTLTCTVSGIDLSHDDISWVRQAPGKGLEWVGIISYAGSTYYASWAKGRLTISKDTSKNQVVLTMTNMDPVDTATYYCARGVPAYSHGGDLWGQGTLVTVSSASTKGPSVFPLAPSSKSTSGGTAALGCLVKDYFPEPVTVSWNSGALTSGVHTFPAVLQSSGLYSLSSVVTVPSSSLGTQTYICNVNHKPSNTKVDKKVEPKSCDKTHTCPPCPAPELLTGPVVFLFPPKPKDTLMISRTPEVTCVVVDVSDEDPEVKFNWYVDGVEVHNAKTKPREEQYNLTYRVVSVLTVLHQDWLNGKEYKCKVSNKALPKPIEKTISKAKGQPREPQVYTLPPSREEMTKNQVSLTCLVKGFYPSDIAVEWESNGQPENNYKTTPPVLDSDGSFFLYSKLTVDKSRWQQGNVFSCSVMHEALHNHYTQKSLSLSP light: DIVMTQSPATLSLSPGERATLSCTSSQSVYHANWLSWFQQKPGQPPKLLIYWASTLAYGVPSRFSGSGSGTDFTLTISSLQPEDAATYYCAGGYGGGRYAFGQGTKVEIKRTVAAPSVFIFPPSDEQLKSGTASVVCLLNNFYPREAKVQWKVDNALQSGNSQESVTEQDSKDSTYSLSSTLTLSKADYEKHKVYACEVTHQGLSSPVTKSFNRGEC	12.3	11.3	2.4	0.08	2	6.5	6.7	0.08
M103205H795-MY515/M103202L889-SK1 (antibody, human IgG1, kappa, Substitutions introduced into M103205H795-SG1, expressed with M103202L889-SK1 as light chain; EU numbering) heavy: QVTLKESGPVLVKPTETLTLTCTVSGIDLSHDDISWVRQAPGKGLEWVGIISYAGSTYYASWAKGRLTISKDTSKNQVVLTMTNMDPVDTATYYCARGVPAYSHGGDLWGQGTLVTVSSASTKGPSVFPLAPSSKSTSGGTAALGCLVKDYFPEPVTVSWNSGALTSGVHTFPAVLQSSGLYSLSSVVTVPSSSLGTQTYICNVNHKPSNTKVDKKVEPKSCDKTHTCPPCPAPELLTGPSVFLFPPKPKDTLMISRTPEVTCVVVDVSDEDPEVKFNWYVDGVEVHNAKTKPREELYNLTYRVVSVLTVLHQDWLNGKEYKCKVSNKALPKPIEKTISKAKGQPREPQVYTLPPSREEMTKNQVSLTCLVKGFYPSDIAVEWESNGQPENNYKTTPPVLDSDGSFFLYSKLTVDKSRWQQGNVFSCSVMHEALHNHYTQKSLSLSP light: DIVMTQSPATLSLSPGERATLSCTSSQSVYHANWLSWFQQKPGQPPKLLIYWASTLAYGVPSRFSGSGSGTDFTLTISSLQPEDAATYYCAGGYGGGRYAFGQGTKVEIKRTVAAPSVFIFPPSDEQLKSGTASVVCLLNNFYPREAKVQWKVDNALQSGNSQESVTEQDSKDSTYSLSSTLTLSKADYEKHKVYACEVTHQGLSSPVTKSFNRGEC	22.9	5.9	4.6	0.09	3.1	4.2	3.8	0.09
M103205H795-MY521/M103202L889-SK1 (antibody, human IgG1, kappa, Substitutions introduced into M103205H795-SG1, expressed with M103202L889-SK1 as light chain; EU numbering) heavy: QVTLKESGPVLVKPTETLTLTCTVSGIDLSHDDISWVRQAPGKGLEWVGIISYAGSTYYASWAKGRLTISKDTSKNQVVLTMTNMDPVDTATYYCARGVPAYSHGGDLWGQGTLVTVSSASTKGPSVFPLAPSSKSTSGGTAALGCLVKDYFPEPVTVSWNSGALTSGVHTFPAVLQSSGLYSLSSVVTVPSSSLGTQTYICNVNHKPSNTKVDKKVEPKSCDKTHTCPPCPADELLTGPSVFLFPPKPKDTLMISRTPEVTCVVVDVSDEDPEVKFNWYVDGVEVHNAKTKPREELYNSTYRVVSVLTVLHQDWLNGKEYKCKVSNKALPKPIEKTISKAKGQPREPQVYTLPPSREEMTKNQVSLTCLVKGFYPSDIAVEWESNGQPENNYKTTPPVLDSDGSFFLYSKLTVDKSRWQQGNVFSCSVMHEALHNHYTQKSLSLSP light: DIVMTQSPATLSLSPGERATLSCTSSQSVYHANWLSWFQQKPGQPPKLLIYWASTLAYGVPSRFSGSGSGTDFTLTISSLQPEDAATYYCAGGYGGGRYAFGQGTKVEIKRTVAAPSVFIFPPSDEQLKSGTASVVCLLNNFYPREAKVQWKVDNALQSGNSQESVTEQDSKDSTYSLSSTLTLSKADYEKHKVYACEVTHQGLSSPVTKSFNRGEC	1.3	3.9	2.9	0.16	2.4	3.3	3.2	0.16
M103205H795-MY520/M103202L889-SK1 (antibody, human IgG1, kappa, Substitutions introduced into M103205H795-SG1, expressed with M103202L889-SK1 as light chain; EU numbering) heavy: QVTLKESGPVLVKPTETLTLTCTVSGIDLSHDDISWVRQAPGKGLEWVGIISYAGSTYYASWAKGRLTISKDTSKNQVVLTMTNMDPVDTATYYCARGVPAYSHGGDLWGQGTLVTVSSASTKGPSVFPLAPSSKSTSGGTAALGCLVKDYFPEPVTVSWNSGALTSGVHTFPAVLQSSGLYSLSSVVTVPSSSLGTQTYICNVNHKPSNTKVDKKVEPKSCDKTHTCPPCPADELLTGPVVFLFPPKPKDTLMISRTPEVTCVVVDVSDEDPEVKFNWYVDGVEVHNAKTKPREELYNSTYRVVSVLTVLHQDWLNGKEYKCKVSNKALPKPIEKTISKAKGQPREPQVYTLPPSREEMTKNQVSLTCLVKGFYPSDIAVEWESNGQPENNYKTTPPVLDSDGSFFLYSKLTVDKSRWQQGNVFSCSVMHEALHNHYTQKSLSLSP light: DIVMTQSPATLSLSPGERATLSCTSSQSVYHANWLSWFQQKPGQPPKLLIYWASTLAYGVPSRFSGSGSGTDFTLTISSLQPEDAATYYCAGGYGGGRYAFGQGTKVEIKRTVAAPSVFIFPPSDEQLKSGTASVVCLLNNFYPREAKVQWKVDNALQSGNSQESVTEQDSKDSTYSLSSTLTLSKADYEKHKVYACEVTHQGLSSPVTKSFNRGEC	1.3	8.3	1.5	0.18	1.4	3.3	3.5	0.29
M103205H795-MY516/M103202L889-SK1 (antibody, human IgG1, kappa, Substitutions introduced into M103205H795-SG1, expressed with M103202L889-SK1 as light chain; EU numbering) heavy: QVTLKESGPVLVKPTETLTLTCTVSGIDLSHDDISWVRQAPGKGLEWVGIISYAGSTYYASWAKGRLTISKDTSKNQVVLTMTNMDPVDTATYYCARGVPAYSHGGDLWGQGTLVTVSSASTKGPSVFPLAPSSKSTSGGTAALGCLVKDYFPEPVTVSWNSGALTSGVHTFPAVLQSSGLYSLSSVVTVPSSSLGTQTYICNVNHKPSNTKVDKKVEPKSCDKTHTCPPCPAPELLTGPVVFLFPPKPKDTLMISRTPEVTCVVVDVSDEDPEVKFNWYVDGVEVHNAKTKPREELYNLTYRVVSVLTVLHQDWLNGKEYKCKVSNKALPKPIEKTISKAKGQPREPQVYTLPPSREEMTKNQVSLTCLVKGFYPSDIAVEWESNGQPENNYKTTPPVLDSDGSFFLYSKLTVDKSRWQQGNVFSCSVMHEALHNHYTQKSLSLSP light: DIVMTQSPATLSLSPGERATLSCTSSQSVYHANWLSWFQQKPGQPPKLLIYWASTLAYGVPSRFSGSGSGTDFTLTISSLQPEDAATYYCAGGYGGGRYAFGQGTKVEIKRTVAAPSVFIFPPSDEQLKSGTASVVCLLNNFYPREAKVQWKVDNALQSGNSQESVTEQDSKDSTYSLSSTLTLSKADYEKHKVYACEVTHQGLSSPVTKSFNRGEC	21.3	21.5	4	0.12	3.1	12.9	9	0.12
